Results reported in the supplement of paper PMC9732359.
± gives the uncertainty stated by the source.

Experiment: protein stability index of a GFP-peptide fusion (yeast GPS) (PSI 1-4); higher = more stable; sorted into four equal gates, so the index is relative within each strain
Conditions: pdr5∆
In short: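 Each library plasmid carries Cherry plus GFP with a tiled 17-residue yeast protein peptide fused downstream, and the pooled library was carried in yeast. Mid-log cultures in leucine-free medium were sorted into four equal gates by GFP/Cherry ratio. Reads from Illumina sequencing of PCR-amplified plasmids from each gate were assigned to strains by barcodes. Per peptide, the protein stability index was computed as the summed products of gate read frequency and gate number.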

Row | Sequence | protein stability index
1 | RARVKAFPKDDRSKPVA [RPL3] | 3.12 ± 0.1

Same assay, conditions: san1∆

Row | Sequence | protein stability index
2 | QIVQVLKQPPFQITLSS [SSN8] | 1.86 ± 0.094
3 | QKESDAKNETNSESDSK [ITC1] | 3.02 ± 0.045
4 | QKGTIGITYRREDMPFT [RPB2] | 2.8 ± 0.08
5 | QKIVVVRAEELNISGEF [RPL16A] | 3.17 ± 0.16
6 | QKKVPDKLLDPTTVSYI [SCL1] | 2.4 ± 0.056
7 | QKLMQLVVLTDVVERLH [RGR1] | 2.23 ± 0.091
8 | QKSGRPVKSIRARLKGK [RPO21] | 2.34 ± 0.2
9 | QKSINHPPDFKRMLLSL [SNF2] | 1.71 ± 0.062
10 | QKSTELLIRKLPFQRLV [HHT1] | 1.17 ± 0.21
11 | QLAIRNDDELNKLLGNV [HTA1] | 3.23 ± 0.064
12 | QLDKKNELQKFQALWQL [SMC1] | 2.58 ± 0.1
13 | QLFHNLISIHSRENNSE [YJL039C/NUP192] | 2.3 ± 0.11
14 | QLGYGKFLILNENPINK [NUT1] | 2.71 ± 0.077
15 | QLLDTSNQRFKDLQWLE [SIN4] | 2.88 ± 0.06
16 | QLLGDVMTYKGEVLGIT [RPO31] | 3.24 ± 0.14
17 | QLLKEDSEKRNKYAAML [RRP45] | 2.75 ± 0.18
18 | QLLLLSDERAKLELINR [LRP1] | 2.99 ± 0.11
19 | QLLQRIPNIPPNINTWQ [GAL11] | 1.96 ± 0.059
20 | QLPANMVHLYSIVEECD [RPC17] | 1.86 ± 0.065
21 | QLPKQLWRNFCRKLSFS [ITC1] | 2.6 ± 0.039
22 | QLTVCGAIIGWTRGTGL [FAS2] | 1.09 ± 0.23
23 | QLYESGNPVNDANLLGA [COR1] | 2.42 ± 0.069
24 | QLYKARMSIKLLRLASK [POP1] | 1.4 ± 0.11
25 | QMAKDVTTFLNWCAEPE [CYT1] | 3.04 ± 0.098
26 | QMIDTSILPTRDDLFVR [NUT1] | 2.73 ± 0.08

Row | Sequence | protein stability index
27 | QNDQWSIQMEFMLRKQD [SSN2] | 2.4 ± 0.12
28 | QNNSKHTEDTVNESRNS [SRB5] | 2.95 ± 0.09
29 | QNSDASTLEPTLRKELE [YIL149C/MLP2] | 2.55 ± 0.069
30 | QNTIDDTEMKMKSLLTE [YIL149C/MLP2] | 3.17 ± 0.067
31 | QNYLKTYNEDIPVEILV [PRE9] | 2.76 ± 0.091
32 | QPEDLEPAEANEENDLD [RPB2] | 3.21 ± 0.13
33 | QPIFVAHTAGRYANKRF [RPS5] | 1.61 ± 0.12
34 | QPQALQKSGRPVKSIRA [RPO21] | 2.36 ± 0.083
35 | QPSSSRYNGGNDNIGAN [SMB1] | 3.23 ± 0.049
36 | QPVLEKPLKKGSADIGA [SIR4] | 3.08 ± 0.042
37 | QQQQQQHIYPSSTPGVA [GAL11] | 2.664 ± 0.023
38 | QQQQQQQQQQQQQQQQQ [GAL11] | 2.661 ± 0.026
39 | QQQQQQQVPPLPDELTL [DLS1] | 2.727 ± 0.027
40 | QQQSADHDDSTDDADDH [NSL1] | 2.77 ± 0.057
41 | QQQTSTFNSKPVRTIVP [SIR4] | 2.6 ± 0.039
42 | QQQVLNKLRQQAIAKNN [SNF5] | 1.11 ± 0.13
43 | QQRKQKKNRDKKIFGTG [RPS24A] | 3.25 ± 0.035
44 | QQTEKLNPQVADINKNF [RPN2] | 2.44 ± 0.07
45 | QRDAVTLFCCLLRSRLA [RPO21] | 1.85 ± 0.057
46 | QRKKQIAFPQRKYAIKA [RPL35A] | 1.1 ± 0.17
47 | QRKNGVTNSPLFQTIEK [ECM29] | 2.19 ± 0.28
48 | QRSKKIQPTAKVVYIQR [DIS3] | 2.92 ± 0.17
49 | QRVFDETEQEYSPSNEI [YDL116W/NUP84] | 3.21 ± 0.058
50 | QSGSNSGNNSKKRKNKS [ROX3] | 3.02 ± 0.095
51 | QSISNENDVKPISIEAP [SWI3] | 2.42 ± 0.052

Row | Sequence | protein stability index
52 | QSISQNSSSSTPNTNSN [SWI1] | 2.9 ± 0.051
53 | QSKEILKGLLQELKADS [SRP72] | 2.75 ± 0.096
54 | QSLANIQYVTYLLTQQQ [SOH1] | 2.19 ± 0.047
55 | QSLELMIYDDAHEISQG [BRR2] | 2.86 ± 0.037
56 | QSQPIANQSATSTPPPP [SNF5] | 2.61 ± 0.038
57 | QSRRYNLRRHSDIVLDK [SIN4] | 3.131 ± 0.028
58 | QTFEAKLHFKDTKPFLN [NUT1] | 2.62 ± 0.059
59 | QTGTKPVLKKKAAFLGS [COR1] | 3.04 ± 0.076
60 | QTHPDTGISQKSMSILN [HTB1] | 3.11 ± 0.06
61 | QTQEFFLSSFDDVLQTI [YJL039C/NUP192] | 2.32 ± 0.047
62 | QTSLVRMFEKNVMLNIY [SKI6] | 3.29 ± 0.13
63 | QVIFEIFEISLQRKDYT [YML103C/NUP188] | 2.51 ± 0.069
64 | QVKVKGQLGEMAKCLDN [YCS4] | 3.19 ± 0.066
65 | QVNGNIRKVSNDRESVL [SMC3] | 1.92 ± 0.083
66 | QVSKKLSSIEASLKIKN [SMC3] | 2.44 ± 0.12
67 | QVVTDYNILGNLGIPKI [SSN2] | 2.37 ± 0.1
68 | QYDFKAVLEENDENDDE [RPN14] | 3.05 ± 0.076
69 | QYGYSGSSAGMNGRSLT [SNF6] | 3.17 ± 0.046
70 | QYNIPPEREVLVRELYQ [RRP6] | 2.37 ± 0.14
71 | RAEAKAQGVAVQLKRQP [RPL21A] | 1.71 ± 0.12
72 | RAGKYELVKSYSWLLFE [YJR042W/NUP85] | 1.18 ± 0.14
73 | RAHRIGQKNEVRILRLI [SNF2] | 2.03 ± 0.058
74 | RAKPVTNSSILLGKILP [RRP6] | 2.27 ± 0.12
75 | RALYTPFLLMELHKKLV [YDL116W/NUP84] | 1.29 ± 0.22
76 | RAPKVIHGQDFQFFPKE [ISW2] | 3.17 ± 0.065
